# Measurements: patent US20140087995A1 (published 2014)
# Numbered stars: 1 amine (or outer) side, 2 acyl side, 3 side chain; on linkers, the order of the positions; unused ones are H or OH. Bridge positions count the residues as written; N and C are the ends. Side chains are listed from the residue outwards. Ends that are not written are not given here. * marks the point of attachment. C20 diacid = O=C(O)CCCCCCCCCCCCCCCCCCC(=O)*; γGlu = O=C(O)[C@H](CCC(=O)[*:2])N[*:1]; AEEA = NCCOCCOCC(=O)O
# B1: N^ε1-[2-[2-[2-[[2-[2-[2-[[(4S)-4-carboxy-4-(19-carboxynonadecanoylamino)butanoyl]amino]ethoxy]ethoxy]acetyl]amino]ethoxy]ethoxy]acetyl]-[Arg17,Pro21,Pro27,Arg34 … (peptide)
# peptide: K([AEEA-AEEA-γGlu-C20 diacid])CNTATCATQRLANFLRHSSPNFGAIPSSTNVGRNTY-NH2
# modifications: disulfide 2-7; N-terminus assumed
# SMILES: CC[C@H](C)[C@H](NC(=O)[C@H](C)NC(=O)CNC(=O)[C@H](Cc1ccccc1)NC(=O)[C@H](CC(N)=O)NC(=O)[C@@H]1CCCN1C(=O)[C@H](CO)NC(=O)[C@H](CO)NC(=O)[C@H](Cc1c[nH]cn1)NC(=O)[C@H](CCCNC(=N)N)NC(=O)[C@H](CC(C)C)NC(=O)[C@H](Cc1ccccc1)NC(=O)[C@H](CC(N)=O)NC(=O)[C@H](C)NC(=O)[C@H](CC(C)C)NC(=O)[C@H](CCCNC(=N)N)NC(=O)[C@H](CCC(N)=O)NC(=O)[C@@H](NC(=O)[C@H](C)NC(=O)[C@@H]1CSSC[C@H](NC(=O)[C@@H](N)CCCCNC(=O)COCCOCCNC(=O)COCCOCCNC(=O)CC[C@H](NC(=O)CCCCCCCCCCCCCCCCCCC(=O)O)C(=O)O)C(=O)N[C@@H](CC(N)=O)C(=O)N[C@@H]([C@@H](C)O)C(=O)N[C@@H](C)C(=O)N[C@@H]([C@@H](C)O)C(=O)N1)[C@@H](C)O)C(=O)N1CCC[C@H]1C(=O)N[C@@H](CO)C(=O)N[C@@H](CO)C(=O)N[C@H](C(=O)N[C@@H](CC(N)=O)C(=O)N[C@H](C(=O)NCC(=O)N[C@@H](CCCNC(=N)N)C(=O)N[C@@H](CC(N)=O)C(=O)N[C@H](C(=O)N[C@@H](Cc1ccc(O)cc1)C(N)=O)[C@@H](C)O)C(C)C)[C@@H](C)O
# notes: Analogue of human amylin; disulfide and C-terminal amide as told for h-amylin; also called compound 95
# B2: N^ε1-[2-[2-[2-[[2-[2-[2-[[(4S)-4-carboxy-4-(19-carboxynonadecanoylamino)butanoyl]amino]ethoxy]ethoxy]acetyl]amino]ethoxy]ethoxy]acetyl]-[Arg17,Pro21,Pro27,His34 … (peptide)
# peptide: K([AEEA-AEEA-γGlu-C20 diacid])CNTATCATQRLANFLRHSSPNFGAIPSSTNVGHNTY-NH2
# modifications: disulfide 2-7; N-terminus assumed
# SMILES: CC[C@H](C)[C@H](NC(=O)[C@H](C)NC(=O)CNC(=O)[C@H](Cc1ccccc1)NC(=O)[C@H](CC(N)=O)NC(=O)[C@@H]1CCCN1C(=O)[C@H](CO)NC(=O)[C@H](CO)NC(=O)[C@H](Cc1c[nH]cn1)NC(=O)[C@H](CCCNC(=N)N)NC(=O)[C@H](CC(C)C)NC(=O)[C@H](Cc1ccccc1)NC(=O)[C@H](CC(N)=O)NC(=O)[C@H](C)NC(=O)[C@H](CC(C)C)NC(=O)[C@H](CCCNC(=N)N)NC(=O)[C@H](CCC(N)=O)NC(=O)[C@@H](NC(=O)[C@H](C)NC(=O)[C@@H]1CSSC[C@H](NC(=O)[C@@H](N)CCCCNC(=O)COCCOCCNC(=O)COCCOCCNC(=O)CC[C@H](NC(=O)CCCCCCCCCCCCCCCCCCC(=O)O)C(=O)O)C(=O)N[C@@H](CC(N)=O)C(=O)N[C@@H]([C@@H](C)O)C(=O)N[C@@H](C)C(=O)N[C@@H]([C@@H](C)O)C(=O)N1)[C@@H](C)O)C(=O)N1CCC[C@H]1C(=O)N[C@@H](CO)C(=O)N[C@@H](CO)C(=O)N[C@H](C(=O)N[C@@H](CC(N)=O)C(=O)N[C@H](C(=O)NCC(=O)N[C@@H](Cc1c[nH]cn1)C(=O)N[C@@H](CC(N)=O)C(=O)N[C@H](C(=O)N[C@@H](Cc1ccc(O)cc1)C(N)=O)[C@@H](C)O)C(C)C)[C@@H](C)O
# notes: Analogue of human amylin; disulfide and C-terminal amide as told for h-amylin; also called compound 97
# B3: N^ε1-[2-[2-[2-[[2-[2-[2-[[(4S)-4-carboxy-4-(19-carboxynonadecanoylamino)butanoyl]amino]ethoxy]ethoxy]acetyl]amino]ethoxy]ethoxy]acetyl]-[Arg17,Pro21,Pro27,Pro31 … (peptide)
# peptide: K([AEEA-AEEA-γGlu-C20 diacid])CNTATCATQRLANFLRHSSPNFGAIPSSTPVGSNTY-NH2
# modifications: disulfide 2-7; N-terminus assumed
# SMILES: CC[C@H](C)[C@H](NC(=O)[C@H](C)NC(=O)CNC(=O)[C@H](Cc1ccccc1)NC(=O)[C@H](CC(N)=O)NC(=O)[C@@H]1CCCN1C(=O)[C@H](CO)NC(=O)[C@H](CO)NC(=O)[C@H](Cc1c[nH]cn1)NC(=O)[C@H](CCCNC(=N)N)NC(=O)[C@H](CC(C)C)NC(=O)[C@H](Cc1ccccc1)NC(=O)[C@H](CC(N)=O)NC(=O)[C@H](C)NC(=O)[C@H](CC(C)C)NC(=O)[C@H](CCCNC(=N)N)NC(=O)[C@H](CCC(N)=O)NC(=O)[C@@H](NC(=O)[C@H](C)NC(=O)[C@@H]1CSSC[C@H](NC(=O)[C@@H](N)CCCCNC(=O)COCCOCCNC(=O)COCCOCCNC(=O)CC[C@H](NC(=O)CCCCCCCCCCCCCCCCCCC(=O)O)C(=O)O)C(=O)N[C@@H](CC(N)=O)C(=O)N[C@@H]([C@@H](C)O)C(=O)N[C@@H](C)C(=O)N[C@@H]([C@@H](C)O)C(=O)N1)[C@@H](C)O)C(=O)N1CCC[C@H]1C(=O)N[C@@H](CO)C(=O)N[C@@H](CO)C(=O)N[C@H](C(=O)N1CCC[C@H]1C(=O)N[C@H](C(=O)NCC(=O)N[C@@H](CO)C(=O)N[C@@H](CC(N)=O)C(=O)N[C@H](C(=O)N[C@@H](Cc1ccc(O)cc1)C(N)=O)[C@@H](C)O)C(C)C)[C@@H](C)O
# notes: Analogue of human amylin; disulfide and C-terminal amide as told for h-amylin; also called compound 96
# B4: N^ε1-[2-[2-[2-[[2-[2-[2-[[(4S)-4-carboxy-4-(19-carboxynonadecanoylamino)butanoyl]amino]ethoxy]ethoxy]acetyl]amino]ethoxy]ethoxy]acetyl]-[Arg17,Pro21,Pro27,Pro34 … (peptide)
# peptide: K([AEEA-AEEA-γGlu-C20 diacid])CNTATCATQRLANFLRHSSPNFGAIPSSTNVGPNTY-NH2
# modifications: disulfide 2-7; N-terminus assumed
# SMILES: CC[C@H](C)[C@H](NC(=O)[C@H](C)NC(=O)CNC(=O)[C@H](Cc1ccccc1)NC(=O)[C@H](CC(N)=O)NC(=O)[C@@H]1CCCN1C(=O)[C@H](CO)NC(=O)[C@H](CO)NC(=O)[C@H](Cc1c[nH]cn1)NC(=O)[C@H](CCCNC(=N)N)NC(=O)[C@H](CC(C)C)NC(=O)[C@H](Cc1ccccc1)NC(=O)[C@H](CC(N)=O)NC(=O)[C@H](C)NC(=O)[C@H](CC(C)C)NC(=O)[C@H](CCCNC(=N)N)NC(=O)[C@H](CCC(N)=O)NC(=O)[C@@H](NC(=O)[C@H](C)NC(=O)[C@@H]1CSSC[C@H](NC(=O)[C@@H](N)CCCCNC(=O)COCCOCCNC(=O)COCCOCCNC(=O)CC[C@H](NC(=O)CCCCCCCCCCCCCCCCCCC(=O)O)C(=O)O)C(=O)N[C@@H](CC(N)=O)C(=O)N[C@@H]([C@@H](C)O)C(=O)N[C@@H](C)C(=O)N[C@@H]([C@@H](C)O)C(=O)N1)[C@@H](C)O)C(=O)N1CCC[C@H]1C(=O)N[C@@H](CO)C(=O)N[C@@H](CO)C(=O)N[C@H](C(=O)N[C@@H](CC(N)=O)C(=O)N[C@H](C(=O)NCC(=O)N1CCC[C@H]1C(=O)N[C@@H](CC(N)=O)C(=O)N[C@H](C(=O)N[C@@H](Cc1ccc(O)cc1)C(N)=O)[C@@H](C)O)C(C)C)[C@@H](C)O
# notes: Analogue of human amylin; disulfide and C-terminal amide as told for h-amylin; also called compound 98
# B5: N^ε1-[(4S)-4-carboxy-4-(19-carboxynonadecanoylamino)butanoyl]-[Ala14,Arg17,Pro21,Pro27,Pro34]-h-amylin (peptide)
# peptide: K([γGlu-C20 diacid])CNTATCATQRLAAFLRHSSPNFGAIPSSTNVGPNTY-NH2
# modifications: disulfide 2-7; N-terminus assumed
# SMILES: CC[C@H](C)[C@H](NC(=O)[C@H](C)NC(=O)CNC(=O)[C@H](Cc1ccccc1)NC(=O)[C@H](CC(N)=O)NC(=O)[C@@H]1CCCN1C(=O)[C@H](CO)NC(=O)[C@H](CO)NC(=O)[C@H](Cc1c[nH]cn1)NC(=O)[C@H](CCCNC(=N)N)NC(=O)[C@H](CC(C)C)NC(=O)[C@H](Cc1ccccc1)NC(=O)[C@H](C)NC(=O)[C@H](C)NC(=O)[C@H](CC(C)C)NC(=O)[C@H](CCCNC(=N)N)NC(=O)[C@H](CCC(N)=O)NC(=O)[C@@H](NC(=O)[C@H](C)NC(=O)[C@@H]1CSSC[C@H](NC(=O)[C@@H](N)CCCCNC(=O)CC[C@H](NC(=O)CCCCCCCCCCCCCCCCCCC(=O)O)C(=O)O)C(=O)N[C@@H](CC(N)=O)C(=O)N[C@@H]([C@@H](C)O)C(=O)N[C@@H](C)C(=O)N[C@@H]([C@@H](C)O)C(=O)N1)[C@@H](C)O)C(=O)N1CCC[C@H]1C(=O)N[C@@H](CO)C(=O)N[C@@H](CO)C(=O)N[C@H](C(=O)N[C@@H](CC(N)=O)C(=O)N[C@H](C(=O)NCC(=O)N1CCC[C@H]1C(=O)N[C@@H](CC(N)=O)C(=O)N[C@H](C(=O)N[C@@H](Cc1ccc(O)cc1)C(N)=O)[C@@H](C)O)C(C)C)[C@@H](C)O
# notes: Analogue of human amylin; disulfide and C-terminal amide as told for h-amylin; also called compound 94
# Molecular target: T1, human calcitonin receptor (human, UniProt P30988 25-474)
# T1 construct: whole, on cells; Used as membranes prepared from the transfected cells; also called hCTR; hCT
# T1 sequence (looked up): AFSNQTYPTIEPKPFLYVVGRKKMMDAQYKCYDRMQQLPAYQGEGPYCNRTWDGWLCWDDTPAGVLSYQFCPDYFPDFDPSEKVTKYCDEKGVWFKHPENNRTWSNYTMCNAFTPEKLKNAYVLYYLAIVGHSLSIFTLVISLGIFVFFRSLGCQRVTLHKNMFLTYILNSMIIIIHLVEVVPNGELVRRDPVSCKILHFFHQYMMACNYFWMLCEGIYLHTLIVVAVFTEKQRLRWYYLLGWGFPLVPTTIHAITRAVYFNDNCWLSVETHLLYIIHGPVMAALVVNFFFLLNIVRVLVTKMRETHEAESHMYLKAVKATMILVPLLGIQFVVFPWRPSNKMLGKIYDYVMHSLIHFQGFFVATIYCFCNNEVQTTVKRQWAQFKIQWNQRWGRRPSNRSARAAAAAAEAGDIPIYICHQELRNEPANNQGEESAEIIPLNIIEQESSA
# Assay: ratio of binding IC50 at human calcitonin receptor to IC50 at human amylin receptor (reference)
# Outline: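 Competition binding by SPA uses membrane preparations (35 ng/μL final) in pH 7.4 Hepes buffer with 1 mM CaCl2 and 5 mM MgCl₂. Incubation lasts 120 min at 25° C, and IC₅₀ comes from one-site fitting.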
row,Binder,Ratio hCT/hAmylin binding
1,B1,63.4
2,B2,104
3,B3,79.6
4,B4,74.1
5,B5,46.3

# Molecular target: T2, rat calcitonin receptor (rat, UniProt P32214 25-516)
# T2 construct: whole, on cells; Used as membranes prepared from the transfected cells; also called rCTR; rCT
# T2 sequence (looked up): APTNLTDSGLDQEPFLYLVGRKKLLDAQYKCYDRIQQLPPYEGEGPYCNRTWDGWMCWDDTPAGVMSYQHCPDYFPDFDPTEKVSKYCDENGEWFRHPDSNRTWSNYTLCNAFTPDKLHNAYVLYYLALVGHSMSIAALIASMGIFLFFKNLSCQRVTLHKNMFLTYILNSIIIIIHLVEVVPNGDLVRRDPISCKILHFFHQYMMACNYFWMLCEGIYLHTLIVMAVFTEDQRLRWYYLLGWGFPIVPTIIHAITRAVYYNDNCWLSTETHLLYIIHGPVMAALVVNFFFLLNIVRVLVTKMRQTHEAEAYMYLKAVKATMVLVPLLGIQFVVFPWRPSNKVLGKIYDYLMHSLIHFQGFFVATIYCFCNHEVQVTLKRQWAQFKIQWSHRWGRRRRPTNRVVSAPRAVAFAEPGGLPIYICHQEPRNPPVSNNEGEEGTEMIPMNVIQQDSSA
# Assay: ratio of binding IC50 at rat calcitonin receptor to IC50 at rat amylin receptor (reference)
row,Binder,Ratio rCT/rAmylin binding
1,B1,71.3
2,B2,71.1
3,B3,118
4,B4,176
5,B5,280

# Molecular target: T2, rat calcitonin receptor
# Assay: SPA competition with 125I-calcitonin, membranes with rat calcitonin receptor (Assay VIII)
row,Binder,IC50 [nM]
1,B1,388
2,B2,159
3,B3,62.2
4,B4,24.1
5,B5,111

# Molecular target: T3, rat amylin receptor (rat calcitonin receptor with rat RAMP 3) (rat, UniProt P32214 25-516; Q9JJ73 23-147)
# T3 construct: whole, on cells; Used as membranes prepared from the transfected cells; also called rAmylin-R; rAmylin
# T3 sequence (looked up) 1: T2 sequence (looked up)
# T3 sequence (looked up) 2: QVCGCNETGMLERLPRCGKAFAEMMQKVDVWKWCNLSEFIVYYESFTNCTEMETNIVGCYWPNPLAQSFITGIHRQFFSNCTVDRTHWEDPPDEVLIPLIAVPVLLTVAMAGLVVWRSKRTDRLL
# Assay: SPA competition with 125I-rat amylin, membranes with rat calcitonin receptor + rat RAMP3 (Assay VI)
row,Binder,IC50 [nM]
1,B1,5.45
2,B2,2.24
3,B3,0.529
4,B4,0.137
5,B5,0.397
